# Laboratory results reported in the Human Domainome abundance scans (Beltran et al. 2025).
# ± gives the uncertainty stated by the source.
# B1: Membrane-associated guanylate kinase, WW and PDZ domain-containing protein 1, residues 352 to 401; numbered along this chain, Q96QZ7 (parent)
# chain: TEELDSELELPAGWEKIEDPVYGIYYVDHINRKTQYENPVLEAKRKKQLE
# Variants of: B1
# Assay: abundance fitness (aPCA) (normalised: wild type 0, dead -1); higher = more abundant; growth selection in yeast, the domain comes from the species named
# Conditions: Homo sapiens
row,Variant,abundance fitness
1,E42I,-0.117 ± 0.087
2,E42W,-0.26 ± 0.051
3,E42Q,-0.222 ± 0.081
4,E42L,-0.231 ± 0.048
5,E42T,-0.086 ± 0.042
6,E42K,-0.505 ± 0.091
7,E42C,-0.297 ± 0.046
8,E42D,-0.192 ± 0.062
9,E42A,-0.225 ± 0.05
10,E42V,-0.149 ± 0.043
11,E42H,-0.599 ± 0.17
12,E42R,-0.565 ± 0.053
13,E42P,-0.361 ± 0.05
14,E42F,-0.535 ± 0.13
15,E42N,-0.285 ± 0.069
16,E42G,-0.137 ± 0.038
17,E42Y,-0.366 ± 0.055
18,V40P,-0.404 ± 0.099
19,V40F,-0.385 ± 0.1
20,V40S,-0.026 ± 0.061
21,V40Q,-0.385 ± 0.069
22,V40E,-0.25 ± 0.073
23,V40K,-0.055 ± 0.041
24,V40A,0.068 ± 0.05

row,Variant,abundance fitness
1,V40M,-0.033 ± 0.05
2,V40I,-0.197 ± 0.087
3,V40W,-0.177 ± 0.053
4,V40L,-0.016 ± 0.038
5,V40G,-0.047 ± 0.053
6,V40R,-0.099 ± 0.054
7,V40Y,-0.237 ± 0.086
8,V40T,0.006 ± 0.08
9,V40N,-0.038 ± 0.1
10,N38F,-0.058 ± 0.062
11,N38R,-0.079 ± 0.04
12,N38T,-0.341 ± 0.068
13,N38S,-0.066 ± 0.065
14,N38L,-0.271 ± 0.044
15,N38Q,-0.387 ± 0.1
16,N38Y,-0.365 ± 0.097
17,N38W,-0.138 ± 0.072
18,N38C,-0.747 ± 0.051
19,N38A,-0.146 ± 0.059
20,N38M,-0.116 ± 0.064
21,N38I,-0.61 ± 0.2
22,N38G,-0.45 ± 0.059
23,N38H,0.171 ± 0.057
24,N38P,-0.481 ± 0.1

row,Variant,abundance fitness
1,N38K,-0.444 ± 0.1
2,N38E,-0.254 ± 0.084
3,N38D,-0.158 ± 0.064
4,R45Y,-0.266 ± 0.045
5,R45E,0.073 ± 0.047
6,R45S,-0.067 ± 0.05
7,R45N,-0.363 ± 0.073
8,R45W,-0.352 ± 0.048
9,R45K,0.02 ± 0.062
10,R45G,-0.113 ± 0.039
11,R45H,-0.564 ± 0.19
12,R45V,-0.162 ± 0.052
13,R45F,-0.248 ± 0.064
14,R45A,-0.193 ± 0.061
15,R45T,0.048 ± 0.075
16,R45M,-0.159 ± 0.083
17,R45P,-0.056 ± 0.059
18,R45L,-0.302 ± 0.066
19,R45C,-0.241 ± 0.082
20,R45Q,-0.032 ± 0.069
21,R45D,-0.171 ± 0.072
22,R32A,-0.249 ± 0.044
23,R32H,0.125 ± 0.1
24,R32K,-0.061 ± 0.083

row,Variant,abundance fitness
1,R32S,-0.119 ± 0.041
2,R32E,0.002 ± 0.055
3,R32C,-0.168 ± 0.07
4,R32T,-0.607 ± 0.093
5,R32I,-0.387 ± 0.11
6,R32L,-0.119 ± 0.055
7,R32D,0.067 ± 0.087
8,R32F,-0.431 ± 0.063
9,R32G,-0.013 ± 0.039
10,R32W,-0.519 ± 0.053
11,R32P,-0.564 ± 0.045
12,R32V,-0.333 ± 0.042
13,K33L,-0.028 ± 0.039
14,K33F,-0.52 ± 0.15
15,K33H,-0.463 ± 0.14
16,K33D,-0.066 ± 0.1
17,K33V,-0.028 ± 0.044
18,K33C,-0.074 ± 0.074
19,K33P,-0.815 ± 0.13
20,K33I,-0.291 ± 0.083
21,K33W,-0.347 ± 0.051
22,K33Q,-0.034 ± 0.046
23,K33N,-0.169 ± 0.12
24,K33E,-0.488 ± 0.083

row,Variant,abundance fitness
1,K33Y,-0.331 ± 0.09
2,K33G,-0.414 ± 0.054
3,K33S,-0.222 ± 0.059
4,K33T,-0.158 ± 0.066
5,K33A,-0.057 ± 0.048
6,K33M,-0.236 ± 0.081
7,P39R,-0.648 ± 0.046
8,P39M,-0.714 ± 0.086
9,P39Y,-1.21 ± 0.23
10,P39L,-0.615 ± 0.048
11,P39V,-0.699 ± 0.062
12,P39W,-0.894 ± 0.072
13,P39A,-0.379 ± 0.042
14,P39C,-0.817 ± 0.12
15,P39E,-0.466 ± 0.057
16,P39K,-0.857 ± 0.15
17,P39S,-0.597 ± 0.069
18,P39I,-1.04 ± 0.23
19,P39F,-1 ± 0.17
20,P39H,-1.3 ± 0.28
21,P39D,-0.314 ± 0.098
22,P39Q,-0.447 ± 0.087
23,P39G,-0.393 ± 0.057
24,N31T,-0.134 ± 0.063

row,Variant,abundance fitness
1,N31V,-0.756 ± 0.055
2,N31P,-0.663 ± 0.071
3,N31L,-0.325 ± 0.041
4,N31M,-0.444 ± 0.088
5,N31G,0.009 ± 0.04
6,N31W,-0.843 ± 0.13
7,N31S,-0.135 ± 0.064
8,N31E,-0.396 ± 0.069
9,N31K,-0.265 ± 0.093
10,N31Y,-0.671 ± 0.085
11,N31H,-0.069 ± 0.075
12,N31Q,-0.388 ± 0.12
13,N31R,-0.201 ± 0.061
14,N31A,-0.188 ± 0.051
15,N31D,-0.28 ± 0.055
16,N31I,-0.802 ± 0.16
17,N31C,-0.123 ± 0.077
18,N31F,-0.784 ± 0.15
19,Y36S,-0.086 ± 0.059
20,Y36E,-0.172 ± 0.041
21,Y36C,-0.463 ± 0.08
22,Y36Q,-0.134 ± 0.049
23,Y36K,-0.058 ± 0.048
24,Y36D,-0.32 ± 0.069

row,Variant,abundance fitness
1,Y36T,-0.041 ± 0.078
2,Y36F,-0.308 ± 0.085
3,Y36A,-0.102 ± 0.067
4,Y36R,0.059 ± 0.051
5,Y36I,-0.185 ± 0.041
6,Y36V,-0.11 ± 0.059
7,Y36W,-0.093 ± 0.06
8,Y36L,-0.048 ± 0.063
9,Y36H,-0.093 ± 0.043
10,Y36M,0.096 ± 0.083
11,Y36N,-0.176 ± 0.063
12,Y36P,-0.161 ± 0.046
13,I30P,-0.208 ± 0.076
14,I30G,-0.203 ± 0.042
15,I30F,-0.195 ± 0.041
16,I30T,-0.256 ± 0.078
17,I30E,-0.079 ± 0.071
18,I30K,-0.078 ± 0.067
19,I30Y,-0.086 ± 0.1
20,I30W,-0.431 ± 0.072
21,I30N,-0.397 ± 0.08
22,I30R,-0.128 ± 0.038
23,I30M,-0.311 ± 0.088
